Assay [1] has as its target erbB receptors on primary chick myotube cultures. Nature of the assay: radioligand binding: 0.1 nM 125I-IG-EGF on chick myotubes, 2 hrs on ice, with or without 1 µM cold IG-EGF; cpm bound.
For assay [2] the target is unchanged. Nature of the assay: cell-based or functional assay.

As for “Recombinant human NRG IG-EGF domain construct (amino acids 14-246 of the human β1 form) (from UniProt Q02297 14-246) (ligand)”, the specific binding as percent of total binding in assay [1] worked out at 25%. In assay [2], this substance yielded a duration of p185 phosphorylation after the ligand is washed out (1 nM, 45 min treatment), chick myotubes of 8 h and an erbB receptor (p185) tyrosine phosphorylation on chick myotubes, 45 min, anti-phosphotyrosine western blot; potency relative to the EGF form of 4 fold.

As for “Recombinant human NRG isolated EGF-like domain construct (amino acids 177-246 of the human β1 form) (from UniProt Q02297 177-246) (ligand)”, the duration of p185 phosphorylation after the ligand is washed out (1 nM, 45 min treatment), chick myotubes in assay [2] was less than 1 h.

(Values after US20050107601A1.)
